According to the supplement of paper PMC10567573:
± gives the standard deviation.

Assay: protein stability index of a GFP-peptide fusion (GPS, HEK-293T) (PSI 1-6); higher = more stable
Conditions: c terminus: a fixed tail appended
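Also: 24-mer peptide tiles fused after GFP, lentivirally expressed, FACS-sorted into six equal bins by GFP/DsRed ratio, decoded by Illumina sequencing, PSI is the read-weighted mean bin number.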

Row | Sequence | protein stability index (treatment: DMSO) | protein stability index (treatment: MLN4924 1 uM, 8 h)
1 | YEEGMYADWWQEPDAKGDEAEAEP [P3H4] | 5.49 ± 0.17 | 5.37 ± 0.22
2 | EDQEGSPPETSLPYKWVVEAANLL [MYBL2] | 3.96 ± 0.18 | 3.915 ± 0.031
3 | ALSTERELFAWGRGDSGRLGLGTR [NEK8] | 3.56 ± 0.17 | 3.46 ± 0.42
4 | PAARRCHSCVQIKNDVFICGGYNG [KLHDC10] | 2.29 ± 0.42 | 2.43 ± 0.2
5 | FNFKFNLTEDMYAQDSIELLTTSG [CNOT7] | 1.825 ± 0.003 | 
6 | EQEPELSFLKQKEQLEAEAQALRQ [PBXIP1] | 5.42 ± 0.19 | 5.29 ± 0.21
7 | GSQDGHFVLSCSYDGLDCQARQFR [SCNN1D] | 2.52 ± 0.12 | 2.71 ± 0.29
8 | HILKKYYGNGMRKSPEMPVILEVS [RTP4] | 1.99 ± 0.51 | 2.2 ± 0.37
9 | EAAVEALELLGATYVDKKRDLLGA [FEM1A] | 3.27 ± 0.31 | 3.49 ± 0.21
10 | EFYLLELMDCCLIVYHPYRPLLQY [CCNC] | 3.08 ± 1.3 | 2.98 ± 0.45
11 | KEKELSIELANIRDEVAFHTAKCE [MTUS2] | 4.46 ± 0.43 | 4.37 ± 0.46
12 | RYRGRGSEEYRAPRPQSEESWDEE [CHGB] | 5.28 ± 0.51 | 5.34 ± 0.33
13 | VKYVGNMHGNEALGRELMLQLSEF [CPN1] | 2.24 ± 0.2 | 2.25 ± 0.39
14 | RGAQGILLVYDITNRWSFDGIDRW [RAB40C] | 2.93 ± 0.91 | 2.79 ± 0.42
15 | CPVWDIFDSDWYTSRNLIGGADII [RHOBTB3] | 3.26 ± 0.5 | 3.55 ± 0.26
16 | KAPVVECSITGDSSRVIAASYDKT [WDR88] | 4.56 ± 0.2 | 4.78 ± 0.12
17 | MPPLLPLRLCRLWPRNPPSRLLGA [DNAJC4] | 2.29 ± 0.37 | 2.15 ± 0.11
18 | KNATRETTSTLKAWLNEHRKNPYP [IRX6] | 3.14 ± 0.23 | 3.37 ± 0.33
19 | AAIFSLFFVPLSYLLMVTVILLPY [TMEM175] | 2.91 ± 0.11 | 3.01 ± 0.53
20 | PRRSLSISKNKKKASNSIISCFNN [FAN1] | 2.79 ± 0.13 | 3.75 ± 0.29
21 | RELGRLRQQVTNHGRGTEVLLEEP [ZNF263] | 4.7 ± 0.39 | 4.58 ± 0.33
22 | KCLSMFPHYICTLKQPHLLLEKYS [PNLIPRP1] | 2.67 ± 0.69 | 2.51 ± 0.59
23 | ANSLLASPTGLSPYLRFGCLSCRL [CRY1] | 2.15 ± 0.27 | 2.37 ± 0.32

Row | Sequence | protein stability index (treatment: DMSO) | protein stability index (treatment: MLN4924 1 uM, 8 h)
24 | YLNLDTWEWNELIPQGICPVGRSW [KLHDC2] | 2.79 ± 1.1 | 2.39 ± 0.42
25 | HPFFFALGKILSVELGKQKKKYMP [FADS1] |  | 1.89 ± 0.5
26 | LSALKHAVLGLYLLVFLILVGIFI [SCARA5] | 2.16 ± 0.63 | 2.08 ± 0.14
27 | FGAWRCLLDATVAGGQTRLQASDR [FCHSD1] | 2.36 ± 0.27 | 2.48 ± 0.34
28 | AFSHKSMRDRHVNMHLNLRPFDCP [ZBTB22] | 2.4 ± 0.15 | 2.47 ± 0.19
29 | ERCLLNNSLWKKNKTICKERLQIL [NLN] | 2.31 ± 0.26 | 2.7 ± 0.49
30 | QKRYQDWFQRQYLSTPDSQSLRCD [INTS3] | 2.96 ± 0.1 | 3.13 ± 0.17
31 | EKELISMECYDIYSKTWTKQPDLT [GAN] | 3.21 ± 0.25 | 3.28 ± 0.36
32 | GSAVEVQTYQPPWKALSEFALQSD [ISL2] | 3.61 ± 0.4 | 3.73 ± 0.39
33 | KKMESEEDSNWEKSPDNEDSGDSK [GOLPH3L] | 5.63 ± 0.23 | 5.59 ± 0.26
34 | VNHYSEVADGLCCVLTTPCLTQST [SLA] | 2.77 ± 0.27 | 2.53 ± 0.38
35 | RVLMYGSELDADHPGFKDNVYRKR [TPH1] | 3.59 ± 0.11 | 3.8 ± 0.29
36 | NDDYYEESYFTTRTYGEPESAGPS [EMD] | 4.84 ± 0.17 | 4.72 ± 0.17
37 | CSNSQEHGAHKHHPIEEAAEEHRE [TRIM43] | 5.51 ± 0.34 | 5.37 ± 0.27
38 | NNCAFLESSAKSKINVNEIFYDLV [RAP1B] | 2.44 ± 0.45 | 2.07 ± 0.34
39 | RMRYEGVVDIFQTVKMLRTQRPAM [PTPRD] | 2.18 ± 0.18 | 2.38 ± 0.29
40 | VGPRETEEKVRDLLWAKFTNSDTP [TOR1AIP2] | 4.14 ± 0.43 | 4.1 ± 0.3
41 | RATSLGRPEEEEDELAHRCSSFMA [CPOX] | 4.68 ± 0.33 | 4.71 ± 0.17
42 | NTHAKSILNSMNSLRKSNTLCDVT [KLHL12] | 2.82 ± 0.4 | 3.27 ± 0.43
43 | GGLQKMVALLNKTNVKFLAITTDC [CTNNB1] | 2.73 ± 0.61 | 2.45 ± 0.46
44 | ACGVAMELYVFGGVRSREDAQGSE [GAN] | 2.22 ± 0.25 | 2.35 ± 0.096
45 | HLTSVTSESEQEFLYKTAGGLIYW [CD207] | 2.33 ± 0.28 | 2.63 ± 0.33
46 | LSGVQRVESVFFGGGTPSLASPHT [RSAD1] | 2.98 ± 0.27 | 3.07 ± 0.25

Row | Sequence | protein stability index (treatment: DMSO) | protein stability index (treatment: MLN4924 1 uM, 8 h)
47 | AGGGGGGAGAGAPGGGRLLLSTSL [INTS3] | 3.19 ± 0.12 | 2.94 ± 0.24
48 | ESVDEAGGSGPAGLRASTSDGILR [RHOBTB2] | 5.14 ± 0.21 | 5.16 ± 0.2
49 | EYAGSNTYEEAAAYIQCQFEDLNK [GNAI1] | 3.95 ± 0.37 | 4.12 ± 0.5
50 | QAELQELEERLQLQFEAEMARLQE [MTUS2] | 4.78 ± 0.38 | 4.72 ± 0.29
51 | VSTQPAMMVNLRACSAPGGLVPSE [C2CD2L] | 3.43 ± 0.16 | 3.5 ± 0.14
52 | FCDRCCSQKVPLRRMCFVDPVRQC [ZFYVE21] | 2.29 ± 0.14 | 2.04 ± 0.15
53 | LAVRSLRRVGGSRILLRMTLGREV [NLN] | 2.73 ± 0.68 | 2.37 ± 0.55
54 | RIGKRPDLLTFVQNLCKGLSQPTT [NEUROD6] | 2.3 ± 0.22 | 2.17 ± 0.083
55 | SYRTESAQRQACMYASSAPPSEPV [TBX5] | 3.79 ± 0.16 | 4.07 ± 0.24
56 | DARIGEAEAKRDAGIREAKAKQEK [FLOT1] | 5.5 ± 0.19 | 5.37 ± 0.19
57 | ERKKVQIRSMDPSALASDRFNLIL [DCAF4] | 2.29 ± 0.16 | 2.5 ± 0.23
58 | QSEERKRIDELIESGKEEGMKIDL [KMT5A] | 5.583 ± 0.004 | 5.5 ± 0.13
59 | TTGPNPFTTLTDRELEEYRREVER [ADD1] | 5.08 ± 0.18 | 5.16 ± 0.21
60 | GQRIRRGSIGVWHYICPRLGGIGF [SLC6A17] | 2.23 ± 0.27 | 2.42 ± 0.2
61 | HSAVLRDLRSGTLYSLTLYGLRGP [TNXB] | 2.98 ± 0.63 | 2.68 ± 0.38
62 | LEQRGTHAVVGVATALAPLQTDHY [SPSB2] | 3.6 ± 0.31 | 3.65 ± 0.15
63 | VDLVQKYLEKYYNLKNDGRQVEKR [MMP1] | 2.42 ± 0.25 | 2.68 ± 0.36
64 | ASYVVFRIIYMLLITIATFQIAAN [SLC19A2] | 3.09 ± 0.94 | 3.19 ± 0.18
65 | VFQEMLLHKFPYRMVPALPPKRML [SNX8] | 2.12 ± 0.54 | 2.13 ± 0.22
66 | EDHNENGHTPLMEAGSAGHVEVAR [ANKRD17] | 5.63 ± 0.12 | 5.36 ± 0.12
67 | ADPDEMRMQALLIRERILGPSHPD [FEM1C] | 3.94 ± 0.33 | 3.94 ± 0.13
68 | HKRRRRKQKVSRIERSSSFSSITD [DVL3] | 4.28 ± 0.096 | 4.55 ± 0.092
69 | SPICLSTSLSLAQVGAKGDTANEI [SERPINB5] | 4.68 ± 0.15 | 4.54 ± 0.21

Row | Sequence | protein stability index (treatment: DMSO) | protein stability index (treatment: MLN4924 1 uM, 8 h)
70 | EQVFLYENARSGAEAEPEDQDEGE [ZBED1] | 5.7 ± 0.25 | 5.52 ± 0.4
71 | HPGRGLAGRWLWGAQPCLLLPIVP [ADAMTS4] | 2.08 ± 0.7 | 1.92 ± 0.31
72 | HHHHGRDFLLRAASFDVCESVDEA [RHOBTB2] | 4.04 ± 0.38 | 4.25 ± 0.27
73 | DKQRKANESKGTRESWDSAKKLPP [ELOA2] | 5.11 ± 0.19 | 5.06 ± 0.19
74 | KTKKLYIDSRARRNLGSINTELQD [SEC22B] | 3.87 ± 0.22 | 4.08 ± 0.21
75 | TSITLTASRVSKVNDKRRKKSGEK [KMT2E] | 4.04 ± 0.28 | 4.47 ± 0.17
76 | TGGAAGAGGAGRGEDEENREHRVR [KCTD13] | 5.24 ± 0.26 | 5.53 ± 0.32
77 | NTTVIPNGSMAMGTVPGQAPRLAV [LYSMD4] | 3.69 ± 0.32 | 3.5 ± 0.23
78 | ENQSSQAELKEAVEEPSSKDVMEK [CHGA] | 5.6 ± 0.12 | 5.72 ± 0.19
79 | KNGKKWEILNFNQYYEACRKAAKS [ACSBG2] | 2.49 ± 0.21 | 2.62 ± 0.57
80 | GGGFAGGDGLLVGSEKVTMQNLND [KRT16] | 4.72 ± 0.34 | 4.73 ± 0.1
81 | PAATFGADDLVLTLSNPQMSLEGT [ELF3] | 4.24 ± 0.3 | 4.32 ± 0.23
82 | RASGEHVTDEEIESLMKDGDKNND [TNNC2] | 5.66 ± 0.12 | 5.68 ± 0.2
83 | TSRFGSQCMQPNNIMGIENICELA [NR2F2] | 2.88 ± 0.28 | 2.74 ± 0.35
84 | QSLRDLGVKISEQQAEKILKSMDK [SLC25A25] | 4.12 ± 0.28 | 4.19 ± 0.35
85 | CRLGYGCGYEGCRYGCGHRGCGDG [KRTAP19-2] | 3.01 ± 0.46 | 3.11 ± 0.41
86 | RESGAEPQEAVLQQLHQLPRGRLD [LRRC45] | 5.06 ± 0.3 | 5.16 ± 0.25
87 | DRPMFMLQCAMEENCLSASAAQTD [LOXL2] | 2.38 ± 0.52 | 1.94 ± 0.19
88 | MRYEEEGMSYLYASWMYQLQHGDQ [TEX19] | 2.3 ± 0.29 | 2.13 ± 0.17
89 | QVNEINFENMSNDDAVRVLREIVH [DVL3] | 3.01 ± 0.16 | 3.09 ± 0.37
90 | PPASPPADGSPPLLPPGEPPLLGT [ANKRD40] | 5.17 ± 0.26 | 5.42 ± 0.14
